Measurements as given in IntAct's records for PubMed 32296183.

B1: Catenin alpha-3 (Homo sapiens), Q9UI47-2 (parent)
chain: MSAETPITLNIDPQDLQVQTFTVEKLLEPLIIQVTTLVNCPQNPSSRKKGRSKRASVLLASVEEATWNLLDKGEKIAQEATVLKDELTASLEEVRKESEALKVSAERFTDDPCFLPKREAVVQAARALLAAVTRLLILADMIDVMCLLQHVSAFQRTFESLKNVANKSDLQKTYQKLGKELENLDYLAFKRQQDLKSPNQRDEIAGARASLKENSPLLHSICSACLEHSDVASLKASKDTVCEEIQNALNVISNASQGIQNMTTPPEPQAATLGSALDELENLIVLNPLTVTEEEIRPSLEKRLEAIISGAALLADSSCTRDLHRERIIAECNAIRQALQDLLSEYMNNAGKKERSNTLNIALDNMCKKTRDLRRQLRKAIIDHVSDSFLDTTVPLLVLIEAAKNGREKEIKEYAAIFHEHTSRLVEVANLACSMSTNEDGIKIVKIAANHLETLCPQIINAALALAARPKSQAVKNTMEMYKRTWENHIHVLTEAVDDITSIDDFLAVSGMFLFF
B2: Transmembrane protein 43 (Homo sapiens), Q9BTV4 (parent)
chain: MAANYSSTSTRREHVKVKTSSQPGFLERLSETSGGMFVGLMAFLLSFYLIFTNEGRALKTATSLAEGLSLVVSPDSIHSVAPENEGRLVHIIGALRTSKLLSDPNYGVHLPAVKLRRHVEMYQWVETEESREYTEDGQVKKETRYSYNTEWRSEIINSKNFDREIGHKNPSAMAVESFMATAPFVQIGRFFLSSGLIDKVDNFKSLSLSKLEDPHVDIIRRGDFFYHSENPKYPEVGDLRVSFSYAGLSGDDPDLGPAHVVTVIARQRGDQLVPFSTKSGDTLLLLHHGDFSAEEVFHRELRSNSMKTWGLRAAGWMAMFMGLNLMTRILYTLVDWFPVFRDLVNIGLKAFAFCVATSLTLLTVAAGWLFYRPLWALLIAGLALVPILVARTRVPAKKLE
partner: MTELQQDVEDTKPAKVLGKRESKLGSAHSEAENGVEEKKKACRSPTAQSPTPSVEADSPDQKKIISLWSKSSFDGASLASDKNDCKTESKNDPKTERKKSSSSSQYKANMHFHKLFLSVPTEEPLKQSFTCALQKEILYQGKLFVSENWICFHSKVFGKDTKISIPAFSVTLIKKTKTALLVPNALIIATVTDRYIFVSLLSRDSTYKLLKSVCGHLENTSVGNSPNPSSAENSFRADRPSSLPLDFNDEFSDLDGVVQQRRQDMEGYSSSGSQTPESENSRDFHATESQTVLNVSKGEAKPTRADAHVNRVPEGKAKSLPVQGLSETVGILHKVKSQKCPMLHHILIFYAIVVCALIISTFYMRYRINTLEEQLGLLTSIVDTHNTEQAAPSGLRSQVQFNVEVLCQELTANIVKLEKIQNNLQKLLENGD
B3: Ceroid-lipofuscinosis neuronal protein 6 (Homo sapiens), Q9NWW5 (parent)
chain: MEATRRRQHLGATGGPGAQLGASFLQARHGSVSADEAARTAPFHLDLWFYFTLQNWVLDFGRPIAMLVFPLEWFPLNKPSVGDYFHMAYNVITPFLLLKLIERSPRTLPRSITYVSIIIFIMGASIHLVGDSVNHRLLFSGYQHHLSVRENPIIKNLKPETLIDSFELLYYYDEYLGHCMWYIPFFLILFMYFSGCFTASKAESLIPGPALLLVAPSGLYYWYLVTEGQIFILFIFTFFAMLALVLHQKRKRLFLDSNGLFLFSSFALTLLLVALWVAWLWNDPVLRKKYPGVIYVPEPWAFYTLHVSSRH
partner: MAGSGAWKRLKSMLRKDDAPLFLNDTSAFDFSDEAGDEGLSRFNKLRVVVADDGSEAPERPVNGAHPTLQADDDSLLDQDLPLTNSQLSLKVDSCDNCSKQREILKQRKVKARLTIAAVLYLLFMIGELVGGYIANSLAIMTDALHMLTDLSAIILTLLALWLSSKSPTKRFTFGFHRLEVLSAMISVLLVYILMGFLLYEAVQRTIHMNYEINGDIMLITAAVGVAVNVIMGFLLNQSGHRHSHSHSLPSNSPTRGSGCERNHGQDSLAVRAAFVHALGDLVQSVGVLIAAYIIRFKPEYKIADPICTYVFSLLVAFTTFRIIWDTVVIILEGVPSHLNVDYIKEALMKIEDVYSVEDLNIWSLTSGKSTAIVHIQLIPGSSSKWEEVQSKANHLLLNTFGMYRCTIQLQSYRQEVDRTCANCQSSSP
B4: Dolichol kinase (Homo sapiens), Q9UPQ8 (parent)
chain: MTRECPSPAPGPGAPLSGSVLAEAAVVFAVVLSIHATVWDRYSWCAVALAVQAFYVQYKWDRLLQQGSAVFQFRMSANSGLLPASMVMPLLGLVMKERCQTAGNPFFERFGIVVAATGMAVALFSSVLALGITRPVPTNTCVILGLAGGVIIYIMKHSLSVGEVIEVLEVLLIFVYLNMILLYLLPRCFTPGEALLVLGGISFVLNQLIKRSLTLVESQGDPVDFFLLVVVVGMVLMGIFFSTLFVFMDSGTWASSIFFHLMTCVLSLGVVLPWLHRLIRRNPLLWLLQFLFQTDTRIYLLAYWSLLATLACLVVLYQNAKRSSSESKKHQAPTIARKYFHLIVVATYIPGIIFDRPLLYVAATVCLAVFIFLEYVRYFRIKPLGHTLRSFLSLFLDERDSGPLILTHIYLLLGMSLPIWLIPRPCTQKGSLGGARALVPYAGVLAVGVGDTVASIFGSTMGEIRWPGTKKTFEGTMTSIFAQIISVALILIFDSGVDLNYSYAWILGSISTVSLLEAYTTQIDNLLLPLYLLILLMA
partner: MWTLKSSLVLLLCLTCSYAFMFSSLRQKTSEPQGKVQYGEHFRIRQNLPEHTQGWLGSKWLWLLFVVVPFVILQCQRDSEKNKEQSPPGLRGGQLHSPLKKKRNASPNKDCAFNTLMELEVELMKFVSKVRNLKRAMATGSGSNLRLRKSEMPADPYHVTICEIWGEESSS
B5: Golgi SNAP receptor complex member 2 (Homo sapiens), O14653 (parent)
chain: MDPLFQQTHKQVHEIQSCMGRLETADKQSVHIVENEIQASIDQIFSRLERLEILSSKEPPNKRQNARLRVDQLKYDVQHLQTALRNFQHRRHAREQQERQREELLSRTFTTNDSDTTIPMDESLQFNSSLQKVHNGMDDLILDGHNILDGLRTQRLTLKGTQKKILDIANMLGLSNTVMRLIEKRAFQDKYFMIGGMLLTCVVMFLVVQYLT
partner: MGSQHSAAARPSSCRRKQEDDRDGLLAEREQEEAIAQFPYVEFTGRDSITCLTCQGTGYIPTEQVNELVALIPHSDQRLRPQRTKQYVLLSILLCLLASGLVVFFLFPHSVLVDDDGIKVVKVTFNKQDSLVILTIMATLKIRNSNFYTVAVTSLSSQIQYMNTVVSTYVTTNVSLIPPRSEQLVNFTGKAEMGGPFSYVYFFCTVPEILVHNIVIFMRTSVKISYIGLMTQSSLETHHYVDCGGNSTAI
B6: Ceroid-lipofuscinosis neuronal protein 6 (Homo sapiens), Q9NWW5 (parent)
chain: B3 chain

Variants of: B1
Settings: with katl1_human KATNAL1, Q9BW62

Variant | effect of a mutation on the interaction
V94D | disrupting interaction strength

Variants of: B1
Settings: with pax6_human PAX6, P26367
Sequence of pax6_human PAX6, P26367 (P26367 whole entry): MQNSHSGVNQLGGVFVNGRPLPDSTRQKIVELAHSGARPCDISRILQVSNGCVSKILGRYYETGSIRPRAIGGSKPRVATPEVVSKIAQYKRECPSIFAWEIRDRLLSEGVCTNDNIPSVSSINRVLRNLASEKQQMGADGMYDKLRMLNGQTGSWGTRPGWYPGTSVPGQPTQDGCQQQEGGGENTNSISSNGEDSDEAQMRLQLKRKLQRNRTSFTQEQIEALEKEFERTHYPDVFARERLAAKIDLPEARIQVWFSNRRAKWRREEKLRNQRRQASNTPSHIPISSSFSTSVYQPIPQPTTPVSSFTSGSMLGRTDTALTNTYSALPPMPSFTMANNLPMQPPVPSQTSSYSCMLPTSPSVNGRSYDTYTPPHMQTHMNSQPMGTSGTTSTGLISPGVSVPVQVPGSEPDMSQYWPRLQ

Variant | effect of a mutation on the interaction
V94D | with no effect

Variants of: B1
Settings: with taso2_human TASOR2, Q5VWN6
Sequence of taso2_human TASOR2, Q5VWN6 (Q5VWN6 whole entry): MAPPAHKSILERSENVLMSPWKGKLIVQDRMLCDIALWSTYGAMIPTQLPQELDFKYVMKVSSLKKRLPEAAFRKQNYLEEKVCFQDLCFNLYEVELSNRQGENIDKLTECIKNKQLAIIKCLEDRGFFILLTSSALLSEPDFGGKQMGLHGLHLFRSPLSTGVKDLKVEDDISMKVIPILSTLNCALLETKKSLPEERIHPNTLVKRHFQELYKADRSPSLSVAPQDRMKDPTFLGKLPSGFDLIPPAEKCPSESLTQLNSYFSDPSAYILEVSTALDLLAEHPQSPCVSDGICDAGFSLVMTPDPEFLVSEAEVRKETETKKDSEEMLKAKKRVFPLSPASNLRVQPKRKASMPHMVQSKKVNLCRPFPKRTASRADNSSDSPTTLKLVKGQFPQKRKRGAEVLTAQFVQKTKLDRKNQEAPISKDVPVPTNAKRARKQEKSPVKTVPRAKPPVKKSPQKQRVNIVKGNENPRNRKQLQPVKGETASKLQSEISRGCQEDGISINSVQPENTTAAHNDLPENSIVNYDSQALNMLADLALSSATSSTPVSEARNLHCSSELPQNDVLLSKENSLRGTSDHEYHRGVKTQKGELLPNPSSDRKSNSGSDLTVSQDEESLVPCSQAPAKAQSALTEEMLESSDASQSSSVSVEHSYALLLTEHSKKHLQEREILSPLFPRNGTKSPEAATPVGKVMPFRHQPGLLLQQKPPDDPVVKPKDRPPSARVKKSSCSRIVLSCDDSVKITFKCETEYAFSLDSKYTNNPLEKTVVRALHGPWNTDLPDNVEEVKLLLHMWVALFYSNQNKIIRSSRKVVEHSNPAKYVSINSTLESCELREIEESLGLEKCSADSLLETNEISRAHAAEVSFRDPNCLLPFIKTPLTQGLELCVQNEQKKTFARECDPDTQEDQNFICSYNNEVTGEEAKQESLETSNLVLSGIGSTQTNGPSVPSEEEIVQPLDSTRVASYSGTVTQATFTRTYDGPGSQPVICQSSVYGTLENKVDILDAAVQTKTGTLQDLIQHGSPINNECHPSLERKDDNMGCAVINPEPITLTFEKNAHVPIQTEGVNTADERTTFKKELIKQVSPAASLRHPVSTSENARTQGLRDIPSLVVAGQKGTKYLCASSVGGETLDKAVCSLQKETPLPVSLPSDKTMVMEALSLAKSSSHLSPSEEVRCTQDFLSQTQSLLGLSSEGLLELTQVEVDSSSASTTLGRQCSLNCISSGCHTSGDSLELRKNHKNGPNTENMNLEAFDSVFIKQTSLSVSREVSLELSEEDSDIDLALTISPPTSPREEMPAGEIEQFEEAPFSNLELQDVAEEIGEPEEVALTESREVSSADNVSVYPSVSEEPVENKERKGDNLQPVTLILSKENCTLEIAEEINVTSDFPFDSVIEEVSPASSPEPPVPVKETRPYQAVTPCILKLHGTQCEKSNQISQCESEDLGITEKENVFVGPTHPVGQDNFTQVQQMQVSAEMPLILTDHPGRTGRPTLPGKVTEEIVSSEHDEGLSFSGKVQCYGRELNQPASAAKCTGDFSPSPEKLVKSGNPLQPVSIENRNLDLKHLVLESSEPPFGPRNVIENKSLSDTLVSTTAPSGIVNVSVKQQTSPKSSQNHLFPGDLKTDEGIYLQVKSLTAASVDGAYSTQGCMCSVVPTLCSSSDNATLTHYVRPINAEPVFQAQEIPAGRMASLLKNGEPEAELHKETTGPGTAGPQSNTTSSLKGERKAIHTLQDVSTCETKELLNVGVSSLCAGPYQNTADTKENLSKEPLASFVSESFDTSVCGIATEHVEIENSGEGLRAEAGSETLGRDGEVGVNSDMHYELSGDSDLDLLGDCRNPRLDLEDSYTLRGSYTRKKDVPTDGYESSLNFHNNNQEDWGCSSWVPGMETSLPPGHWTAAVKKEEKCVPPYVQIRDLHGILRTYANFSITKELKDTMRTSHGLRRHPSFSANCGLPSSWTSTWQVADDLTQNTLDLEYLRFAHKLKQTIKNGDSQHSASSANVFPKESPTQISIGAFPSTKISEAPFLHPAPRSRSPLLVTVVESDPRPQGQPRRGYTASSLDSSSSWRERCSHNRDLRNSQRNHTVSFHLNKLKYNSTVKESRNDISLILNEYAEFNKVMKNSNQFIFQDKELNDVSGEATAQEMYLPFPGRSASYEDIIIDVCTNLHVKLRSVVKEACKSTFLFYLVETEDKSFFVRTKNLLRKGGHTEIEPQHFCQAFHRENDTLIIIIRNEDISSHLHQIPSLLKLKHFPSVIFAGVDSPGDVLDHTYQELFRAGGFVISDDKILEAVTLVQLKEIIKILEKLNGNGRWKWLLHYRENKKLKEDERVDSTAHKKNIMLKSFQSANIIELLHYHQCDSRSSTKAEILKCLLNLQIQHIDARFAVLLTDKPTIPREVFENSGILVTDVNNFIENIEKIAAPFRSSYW

Variant | effect of a mutation on the interaction
V94D | with no effect

Variants of: B1
Settings: with pnma5_human PNMA5, Q96PV4
Sequence of pnma5_human PNMA5, Q96PV4 (Q96PV4 whole entry): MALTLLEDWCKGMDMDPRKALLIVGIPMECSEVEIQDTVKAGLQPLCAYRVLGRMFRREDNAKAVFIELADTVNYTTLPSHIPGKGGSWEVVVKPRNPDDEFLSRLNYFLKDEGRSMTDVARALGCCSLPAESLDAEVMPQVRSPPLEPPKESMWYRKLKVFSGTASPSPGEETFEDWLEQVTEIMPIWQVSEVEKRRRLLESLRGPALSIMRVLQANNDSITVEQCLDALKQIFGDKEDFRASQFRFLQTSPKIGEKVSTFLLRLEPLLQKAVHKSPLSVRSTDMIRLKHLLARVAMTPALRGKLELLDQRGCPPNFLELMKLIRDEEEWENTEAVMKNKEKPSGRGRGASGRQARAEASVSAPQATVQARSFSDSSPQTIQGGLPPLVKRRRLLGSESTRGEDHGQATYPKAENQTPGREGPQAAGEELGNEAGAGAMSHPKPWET

Variant | effect of a mutation on the interaction
V94D | with no effect

Variants of: B1
Settings: with ms18b_human OIP5, O43482
Sequence of ms18b_human OIP5, O43482 (O43482 whole entry): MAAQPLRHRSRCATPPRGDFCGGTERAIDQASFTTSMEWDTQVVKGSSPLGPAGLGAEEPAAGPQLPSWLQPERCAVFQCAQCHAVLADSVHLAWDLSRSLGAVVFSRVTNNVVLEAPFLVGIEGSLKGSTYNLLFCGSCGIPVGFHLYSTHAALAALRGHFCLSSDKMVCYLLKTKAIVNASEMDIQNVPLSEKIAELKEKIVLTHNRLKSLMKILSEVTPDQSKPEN

Variant | effect of a mutation on the interaction
V94D | disrupting interaction strength

Variants of: B1
Settings: with cq050_human C17orf50, Q8WW18
Sequence of cq050_human C17orf50, Q8WW18 (Q8WW18 whole entry): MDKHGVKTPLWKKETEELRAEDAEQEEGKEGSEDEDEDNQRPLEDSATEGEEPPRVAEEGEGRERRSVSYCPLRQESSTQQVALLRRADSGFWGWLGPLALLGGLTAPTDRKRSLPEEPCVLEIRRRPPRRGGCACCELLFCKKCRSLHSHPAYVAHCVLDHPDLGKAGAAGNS

Variant | effect of a mutation on the interaction
V94D | disrupting interaction strength

Variants of: B1
Settings: with mb3l1_human MBD3L1, Q8WWY6
Sequence of mb3l1_human MBD3L1, Q8WWY6 (Q8WWY6 whole entry): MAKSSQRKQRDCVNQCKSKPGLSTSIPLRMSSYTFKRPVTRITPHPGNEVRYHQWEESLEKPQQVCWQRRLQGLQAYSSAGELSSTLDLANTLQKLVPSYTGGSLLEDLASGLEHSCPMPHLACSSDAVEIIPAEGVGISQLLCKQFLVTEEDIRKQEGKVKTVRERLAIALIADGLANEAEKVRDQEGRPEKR

Variant | effect of a mutation on the interaction
V94D | with no effect

Variants of: B1
Settings: with PRR5, P85299-2
Sequence of PRR5, P85299-2 (P85299 other isoform, or with tags, fused parts or gaps): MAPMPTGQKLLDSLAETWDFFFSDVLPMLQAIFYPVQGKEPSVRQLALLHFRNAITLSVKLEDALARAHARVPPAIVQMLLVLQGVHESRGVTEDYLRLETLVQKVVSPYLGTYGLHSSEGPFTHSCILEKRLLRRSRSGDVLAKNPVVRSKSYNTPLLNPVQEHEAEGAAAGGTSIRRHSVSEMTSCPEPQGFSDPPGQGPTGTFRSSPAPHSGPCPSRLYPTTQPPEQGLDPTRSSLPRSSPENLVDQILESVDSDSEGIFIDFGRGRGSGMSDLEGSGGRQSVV

Variant | effect of a mutation on the interaction
V94D | disrupting interaction strength

Variants of: B1
Settings: with cenps_human CENPS

Variant | effect of a mutation on the interaction
V94D | disrupting interaction strength

Variants of: B1
Settings: with zn552_human ZNF552, Q9H707
Sequence of zn552_human ZNF552, Q9H707 (Q9H707 whole entry): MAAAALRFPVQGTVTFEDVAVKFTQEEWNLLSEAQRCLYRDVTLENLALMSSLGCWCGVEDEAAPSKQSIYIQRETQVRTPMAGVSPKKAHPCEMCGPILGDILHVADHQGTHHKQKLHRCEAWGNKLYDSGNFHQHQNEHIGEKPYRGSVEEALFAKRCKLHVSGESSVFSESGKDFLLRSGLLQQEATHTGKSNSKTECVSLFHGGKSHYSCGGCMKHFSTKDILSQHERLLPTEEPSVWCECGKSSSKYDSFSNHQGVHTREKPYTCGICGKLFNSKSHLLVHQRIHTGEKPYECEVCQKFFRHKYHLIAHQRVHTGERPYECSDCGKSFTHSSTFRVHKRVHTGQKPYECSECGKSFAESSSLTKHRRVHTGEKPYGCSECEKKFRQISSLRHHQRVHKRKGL

Variant | effect of a mutation on the interaction
V94D | disrupting interaction strength

Variants of: B2
Settings: with grm2b_human GRAMD2B

Variant | effect of a mutation on the interaction
E142K | with no effect
Y371H | with no effect
I91V | with no effect
E85K | with no effect

Variants of: B3
Settings: with znt4_human SLC30A4, O14863

Variant | effect of a mutation on the interaction
L47F | disrupting interaction strength
R6T | with no effect

Variants of: B4
Settings: with FAM209A

Variant | effect of a mutation on the interaction
Y441S | disrupting interaction strength

Variants of: B5
Settings: with TMEM106C

Variant | effect of a mutation on the interaction
G144W | disrupting interaction strength

Variants of: B6
Settings: with stx1a_human STX1A

Variant | effect of a mutation on the interaction
R6T | with no effect

Variants of: B6
Settings: with ar13b_human ARL13B

Variant | effect of a mutation on the interaction
R6T | with no effect

Variants of: B6
Settings: with cxa8_human GJA8, P48165

Variant | effect of a mutation on the interaction
R6T | with no effect

Variants of: B6
Settings: with cd79a_human CD79A

Variant | effect of a mutation on the interaction
R6T | with no effect

Variants of: B6
Settings: with ki2l3_human KIR2DL3, P43628
Sequence of ki2l3_human KIR2DL3, P43628 (P43628 whole entry): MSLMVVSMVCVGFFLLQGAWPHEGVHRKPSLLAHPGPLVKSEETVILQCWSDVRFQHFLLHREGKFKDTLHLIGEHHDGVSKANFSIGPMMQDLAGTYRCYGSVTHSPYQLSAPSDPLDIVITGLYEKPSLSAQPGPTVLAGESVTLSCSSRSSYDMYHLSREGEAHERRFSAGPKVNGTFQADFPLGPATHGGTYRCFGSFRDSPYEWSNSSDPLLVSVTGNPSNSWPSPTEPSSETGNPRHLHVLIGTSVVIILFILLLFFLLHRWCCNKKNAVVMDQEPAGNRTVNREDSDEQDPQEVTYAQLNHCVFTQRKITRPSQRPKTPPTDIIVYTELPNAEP

Variant | effect of a mutation on the interaction
R6T | with no effect

Variants of: B6
Settings: with lrc25_human LRRC25, Q8N386

Variant | effect of a mutation on the interaction
R6T | with no effect

Variants of: B6
Settings: with tm139_human TMEM139, Q8IV31

Variant | effect of a mutation on the interaction
R6T | with no effect
